Results as given in patent US20060127400A1, “Activation of regulatory T cells by alpha-melanocyte stimulating hormone” (THE SCHEPENS EYE RESEARCH INSTITUTE, INC., priority 1999, published 2006).

Assays:
[1] = tested on: primed T cells; assay: proliferation of TCR-stimulated primed T cells (3H-thymidine incorporation); type: cell-based, mouse (BALB/c); conditions: for T cell proliferation, increasing concentrations of TGF-β: 0.005-5.0 ng/ml, regardless of the presence of α-MSH 30 pg/ml; for T cell proliferation, TGF-β added from the start of TCR-stimulation through 6 hours later: no α-MSH
[2] = tested on: primed Th1 cells; assay: in vitro regulatory T cell activity assay (IFN-γ of freshly activated primed Th1 cells in coculture); type: cell-based, mouse (BALB/c); conditions: for induction of regulatory T cell activity (suppression of IFN-γ of other Th1 cells), factor individually: α-MSH 30 pg/ml or TGF-β 5.0 ng/ml; for induction of regulatory T cell activity, TGF-β added 4 hours after TCR-stimulation in the presence of α-MSH: α-MSH 30 pg/ml, TGF-β 5.0 ng/ml
Protocol: (§1) Assay For In Vitro Regulatory T Cell Activity. The α-MSH-treated TCR-stimulated T cells, as described above, were cultured for 48 hours. The plate was spun down at 250×g for 10 minutes and supernatant discarded. Freshly isolated, enriched in vivo primed Th1 cells (4×10^6 cells/ml) mixed with 2C11 (1 μg/ml) were added (200 μl) to the wells of the α-MSH pre-treated, TCR-stimulated T cells and incubated for 48 hours. The culture supernatant was assayed for IFN-γ by sandwich ELISA. For long term cultures, primed T cells were TCR-stimulated in the presence of α-MSH for 48 hours. The plate was centrifuged and supernatant was exchanged for 200 μl of 2C11 (1 μg/ml) in fresh media, no x-MSH. The cultures were incubated for 72 hours and the conditioned media was again exchanged for fresh media and 2C11 antibody. The cultures were incubated for an additional 48 hours, centrifuged, supernatant discarded, and added were fresh in vivo primed Th1 cells and 2C11 antibody. Soluble TGF-β receptor II (sTGF-βRII, R&D Systems) was added to some of the cultures. These cultures were incubated for 48 hours and the culture supernatant was assayed for IFN-γ by sandwich ELISA.
Primed T cells (4×10^5 cells) were enriched and activated with anti-CD3 in the presence (α-MSH+anti-CD3) or absence (+anti-CD3) of α-MSH (30 pg/ml). After 48 hours of incubation the cells were mixed with freshly enriched primed Th1 cells (4×10^5 cells) and anti-CD3 antibody and cultured for 48 hours. The culture supernatant was assayed for IFN-γ by sandwich ELISA. Results are presented as IFN-γ pg/ml±SEM of eight independent experiments.
In addition, T cells initial TCR-stimulated in the presence of α-MSH and subsequently restimulated twice (Day 2 and Day 5) with anti-TCR antibody in the absence of α-MSH, still suppressed IFN-γ production by freshly activated primed Th1 cells (FIG. 6). […] Primed T cells (4×10^5 cells) were enriched and activated with anti-CD3 antibody in the presence of 30 pg/ml α-MSH (α-MSH+anti-CD3) or absence of α-MSH (+anti-CD3). After 48 hours of incubation the cells were centrifuged and resuspended in fresh media with anti-CD3 antibodies and incubated for 72 hours (day 5). The cells were again washed and re-stimulated with anti-CD3 and incubated for an additional 48 hours (day 7). After the final incubation the treated T cells (4×10^5 cells) were mixed with freshly enriched primed Th1 cells (4×10^5 cells) and anti-CD3 antibody and cultured for 48 hours. The culture supernatant was assayed for IFN-γ by sandwich ELISA. Results are presented as IFN-γ pg/ml±SEM of eight independent experiments. […] Therefore, α-MSH mediates induction of functionally active, regulatory Th3 cells.
TGF-β and α-MSH induce regulatory T cell activity. Primed T cells were TCR-stimulated in the presence or absence of 30 pg/ml α-MSH with TGF-β1 or TGF-β2 (5.0 ng/ml) added 4 hours after TCR-stimulation. The treated T cells (Regulatory T cells) were added to cultures of freshly activated primed T cells. Culture supernatants were assayed for IFN-γ 48 hours after addition of treated T cells. Data are presented as percent suppression±SEM of IFN-γ produced by freshly activated T cells with no added regulatory cells, from eight independent experiments.

[3] = tested on: primed T cells; assay: total TGF-β production by TCR-stimulated primed T cells, Mv1Lu (CCL-64) bioassay; type: cell-based, mouse (BALB/c); conditions: α-MSH 30 pg/ml, TGF-β 5.0 ng/ml, 48 hours
Protocol: TGF-β bioassay. To measure total TGF-β, 100 μl of conditioned media was pretreated according to standard procedures (24) with 10 μl 1N HCL to lower the media pH to 2 and incubated for 1 hour at 4° C. The acid was neutralized with 20 μl of a 1:1 mixture of 1N NaOH: 1M HEPES returning the culture supernatant to a pH 7.3. The transiently acidified conditioned media was then used in the Mv1Lu assay; diluted 1:4 in EMEM+0.5% FBS. To the wells of a Falcon 96-well flat-bottom plate, 100 μl of diluted transiently acidified samples were added with 100 μl of 1×10^5 Mv1Lu cells (CCL-64; ATCC, Rockville, Md.). The plate was incubated for 20 hours at 37° C., 5% CO2 followed by the addition of 20 μl of 50 μCi/ml 3H-thymidine and the plate was incubated for an additional 4 hours. Supernatant was discarded and 50 μl of 10× Trypsin-EDTA (Biowhittaker, Walkersville, Md.) solution was added to each well and the plate was incubated for 15 minute at 37° C. The cells were collected onto filter paper using a Tomtec Plate Harvester 96 and counts per minute (CPM) of incorporation 3H-thymidine was measured using a Wallac 1205 Betaplate Liquid Scintillation Counter. Cultures of known amounts of purified activated TGF-β1, 20 ng/ml to 0.2 pg/ml (R&:D Systems), were prepared in the same plate for calculating a standard curve to quantify the concentration of total TGF-β in the samples.
Primed T Cell In Vitro Assays. From draining lymph nodes of BALB/c mice immunized 7 days previously with MT-Ag, primed T cells were isolated using CD3 enrichment columns (R&D Systems). T-cells (4×10^5 cells) suspended in serum-free media were added to the wells of a 96 well, round bottom plate (Corning). To the wells were added α-MSH (30 pg/ml) and anti-TCR antibody (2C11; 1 μg/ml) diluted in serum-free culture media. Various concentrations of TGF-β1 or TGF-β2 in media were added. In a second set of experiments TGF-β1 or TGF-β2 at a fixed concentration of 5 ng/ml were added to the wells at various times (0, 2, 4 and 6 hours) after addition of anti-TCR antibody. The cultures were incubated for 24 hours and 0.5 μCi of 3H-thymidine (NEM, Boston, Mass.) was added to the wells and the cultures were incubated for an additional 24 hours. The cells were collected and incorporated radiolabeled was measured by scintillation counting. Production of TGF-β by the treated primed T cells was done by centrifuging the culture plates 24 hours after the addition of anti-TCR antibody, removing the supernatant, washing the cultures once and adding fresh media. […]
FIG. 4 is a bar graph of TGF-β production by primed T cells TCR-stimulated in the presence of α-MSH. […] Significance (p=0.05) was determined by Student's t-test between TGF-β concentrations in cultures of activated α-MSH treated T cells and T cells activated in the absence of α-MSH. […]

[4] = tested on: TGF-β; assay: in vitro regulatory T cell assay with soluble TGF-β receptor type II added; type: cell-based, mouse; conditions: increasing amounts added to cocultures, 48 hours
Protocol: as §1
α-MSH induced regulatory T cells that through TGF-β suppress activation of other T cells. […] The regulatory T cells were washed and added to cultures of freshly TCR-stimulated primed T cells as described for FIG. 15. […]

Molecule	T cell proliferation, increasing concentrations of TGF-β [1]	T cell proliferation, low concentrations of TGF-β ([1]; TCR-stimulated primed T cells, FIG. 9)	T cell proliferation, TGF-β added from the start of TCR-stimulation through 6 hours later ([1]; TGF-β 5.0 ng/ml)	induction of regulatory T cell activity (suppression of IFN-γ of other Th1 cells), factor individually [2]	induction of regulatory T cell activity, TGF-β added 4 hours after TCR-stimulation in the presence of α-MSH [2]	α-MSH-induced TGF-β production after addition of TGF-β at various times after TCR-stimulation [3]	effect on suppression of IFN-γ production mediated by α-MSH-treated T cells [4]	T cell proliferation, TGF-β added at or later than 4 hours after TCR-stimulation ([1]; TGF-β 5.0 ng/ml, α-MSH 30 pg/ml present)
TGF-β1: purified activated TGF-β1 (R&D Systems), transforming growth factor	suppressed	either no effect or enhanced	suppressed	could not alone or with α-MSH induce regulatory T cells	antagonized α-MSH-mediated induction of regulatory T cells	did not change	–	–
sTGF-βRII: soluble TGF-β receptor type-two (R&D Systems), used to neutralize TGF-β activity (protein, UniProt P37173 23-166, looked up, extracellular domain) extracellular domain: TIPPHVQKSVNNDMIVTDNNGAVKFPQLCKFCDVRFSTCDNQKSCMSNCSITSICEKPQEVCVAVWRKNDENITLETVCHDPKLPYHDFILEDAASPKCIMKEKKKPGETFFMCSCSSDECNDNIIFSEEYNTSNPDLLLVIFQ	–	–	–	–	–	–	neutralized	–
TGF-β2: recombinant / purified human transforming growth factor-β2 (R&D Systems) (protein, UniProt P61812 303-414, looked up, Transforming growth factor beta-2) Transforming growth factor …: ALDAAYCFRNVQDNCCLRPLYIDFKRDLGWKWIHEPKGYNANFCAGACPYLWSSDTQHSRVLSLYNTINPEASASPCCVSQDLEPLTILYYIGKTPKIEQLSNMIVKSCKCS	suppressed	–	suppressed	induced regulatory T cell activity	enhanced the regulatory activity	did enhance	–	recovered
